{"source": "patent US20180291072", "proteins": {"B1": {"name": "Recombinant MMP-2 (protein)", "chain": "YNFFPRKPKWDKNQITYRIIGYTPDLDPETVDDAFARAFQVWSDVTPLRFSRIHDGEADIMINFGRWEHGDGYPFDGKDGLLAHAFAPGTGVGGDSHFDDDELWTLGEGQVVRVKYGNADGEYCKFPFLFNGKEYNSCTDTGRSDGFLWCSTTYNFEKDGKYGFCPHEALFTMGGNAEGQPCKFPFRFQGTSYDSCTTEGRTDGYRWCGTTEDYDRDKKYGFCPETAMSTVGGNSEGAPCVFPFTFLGNKYESCTSAGRSDGKMWCATTANYDDDRKWGFCPDQGYSLFLVAAHEFGHAMGLEHSQDPGALMAPIYTYTKNFRLSQDDIKGIQELYGASPDIDLGTGPTPTLGPVTPEICKQDIVFDGIAQIRGEIFFFKDRFIWRTVTPRDKPMGPLLVATFWPELPEKIDAVYEAPQEEKAVFFAGNEYWIYSASTLERGYPKPLTSLGLPPDVQRVDAAFNWSKNKKTYIFAGDKFWRYNEVKKKMDPGFPKLIADAWNAIPDNLDAVVDLQGGGHSYFFKGAYYLKLENQSLKSVKFGSIKSDWLGC"}}, "key": {"[1]": {"target": "KLAK-sFt-GFP fusion peptide (pro-apoptotic peptide-ferritin monomer fragment-linker-GFP fusion polypeptide)"}, "[2]": {"target": "type II fusion peptide (pro-apoptotic peptide-linker-ferritin monomer fragment-linker-GFP fusion polypeptide)"}, "[3]": {"target": "sFt-GFP fusion peptide"}, "[4]": {"target": "wFt-GFP fusion peptide"}}}
{"protein": "B1", "values": [{"measurement": "linker cleavage, SDS-PAGE of products", "setting": "[1]", "value": "each linker of type I fusion peptide and type II fusion peptide was cleaved, and products generated by the linker cleavage were observed in a concentration-dependent manner"}, {"measurement": "linker cleavage, SDS-PAGE of products", "setting": "[2]", "value": "each linker of type I fusion peptide and type II fusion peptide was cleaved, and products generated by the linker cleavage were observed in a concentration-dependent manner"}, {"measurement": "linker cleavage, SDS-PAGE", "setting": "[3]", "value": "sFt-GFP was more easily cleaved by MMP-2 as compared with wFt-GFP"}, {"measurement": "linker cleavage, SDS-PAGE", "setting": "[4]", "value": "sFt-GFP was more easily cleaved by MMP-2 as compared with wFt-GFP"}]}
